Assays:
Assay in all cases: flow cytometry on cells; PBMCs of SLA class I haplotype-defined Microminipigs stained with X2F6 followed by anti-mouse IgG-FITC; lymphoid gate; also after TSST-1 or IFN-γ stimulation
[1] = target: classical class I SLA on PBMCs of Hp-35.0 homozygous Microminipigs
[2] = target: classical class I SLA on PBMCs of Hp-10.0 homozygous Microminipigs
[3] = target: classical class I SLA on PBMCs of Hp-17.0 homozygous Microminipigs

MFI [1]: 767 | MFI [2]: 1900 | MFI [3]: 122
B1: X2F6 monoclonal antibody (antibody, V domains shown)
VH: QVQLQQSGAELVKPGASVKLSCKASGYTFTSYDINWVRQRPEQGLEWIGWIYPGDGSTKYNEKFKGKATLTTDKSSSTAYMQLSRLTSEDSAVYFCASPYYYGSSPFAYWGQGTLVTVSA
VL: DIQMTQSPASLSASVGETVTITCRASENIYSYLAWYQQKQGKSPQLLVYNAKTLAEGVPSRFSGSGSGTQFSLKINSLQPEDFGSYYCQHHYGTPRTFGGGTKLEIK

Reference: PMC5070868
